The text below walks through data of patent US20260234222A1.

The assay deals with SARS-CoV-2 Delta Spike antigen (SARS-CoV-2 Delta). Kind of assay: ELISA, Spike antigen coated on plate.

In turn, Anti-S1 antibody DZIF-10c had an EC50 of 6.9 nM.
In the case of Anti-S1 antibody ImdevimAb, the EC50 was 0.01 nM.
